PMC10760632, “Characterization of the SF3B1–SUGP1 interface reveals how numerous cancer mutations cause mRNA missplicing” (Genes & Development, 2023)

Target: T1, SF3B core complex (human, UniProt O75533 453-1304; Q15393 1-1217; Q9BWJ5 1-86; Q7RTV0 1-98)
T1 construct: SF3B1 C-terminal HEAT domain, residues 453-1304; SF3B3, residues 1-1217; SF3B5, residues 1-86; PHF5A, residues 1-98; SF3B3 carries an N-terminal His6 and a TEV protease cleavage site; no cleavage step is described in the purification; also called SF3B complex; source: Tni insect cells (baculovirus), coexpressed, purified (Ni-NTA, Superdex 200 gel filtration); copies: + + +
Test: SEC; purified SF3B complex and DHX15 (113–795)–SUGP1 (433–645) heterodimer mixed at a molar ratio of 1:5, overnight at 4°C, Superose 6 Increase 10/300 in 20 mM HEPES pH 7.9, 300 mM KCl, 5% glycerol, 5 mM DTT; complex fractions rerun and peak analysed by SDS-PAGE
Conditions: both partners purified

T1 sequence (O75533 453-1304, chain 1 of 4): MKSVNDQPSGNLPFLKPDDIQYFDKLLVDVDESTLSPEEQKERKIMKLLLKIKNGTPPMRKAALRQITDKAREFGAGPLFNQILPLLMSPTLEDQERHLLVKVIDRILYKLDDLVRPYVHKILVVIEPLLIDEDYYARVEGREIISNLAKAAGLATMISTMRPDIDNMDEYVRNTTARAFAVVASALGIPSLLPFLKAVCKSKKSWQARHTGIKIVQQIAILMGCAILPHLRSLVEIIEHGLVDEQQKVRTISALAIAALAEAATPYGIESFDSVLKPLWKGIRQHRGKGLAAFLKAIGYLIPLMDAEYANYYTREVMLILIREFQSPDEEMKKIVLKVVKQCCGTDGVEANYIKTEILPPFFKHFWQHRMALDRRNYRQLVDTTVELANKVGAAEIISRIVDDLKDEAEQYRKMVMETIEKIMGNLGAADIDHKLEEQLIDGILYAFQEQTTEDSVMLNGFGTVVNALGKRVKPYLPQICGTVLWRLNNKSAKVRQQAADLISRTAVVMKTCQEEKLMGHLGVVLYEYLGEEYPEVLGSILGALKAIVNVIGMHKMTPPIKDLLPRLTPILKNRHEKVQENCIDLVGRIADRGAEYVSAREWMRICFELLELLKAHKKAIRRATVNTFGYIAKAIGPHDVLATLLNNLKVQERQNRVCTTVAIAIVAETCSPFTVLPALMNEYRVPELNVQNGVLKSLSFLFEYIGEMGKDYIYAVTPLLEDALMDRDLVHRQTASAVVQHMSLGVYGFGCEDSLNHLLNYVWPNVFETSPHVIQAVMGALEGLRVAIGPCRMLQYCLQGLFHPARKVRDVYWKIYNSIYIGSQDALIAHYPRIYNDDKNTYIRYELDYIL
T1 sequence (Q15393 whole entry, chain 2 of 4, the tested form may be a part): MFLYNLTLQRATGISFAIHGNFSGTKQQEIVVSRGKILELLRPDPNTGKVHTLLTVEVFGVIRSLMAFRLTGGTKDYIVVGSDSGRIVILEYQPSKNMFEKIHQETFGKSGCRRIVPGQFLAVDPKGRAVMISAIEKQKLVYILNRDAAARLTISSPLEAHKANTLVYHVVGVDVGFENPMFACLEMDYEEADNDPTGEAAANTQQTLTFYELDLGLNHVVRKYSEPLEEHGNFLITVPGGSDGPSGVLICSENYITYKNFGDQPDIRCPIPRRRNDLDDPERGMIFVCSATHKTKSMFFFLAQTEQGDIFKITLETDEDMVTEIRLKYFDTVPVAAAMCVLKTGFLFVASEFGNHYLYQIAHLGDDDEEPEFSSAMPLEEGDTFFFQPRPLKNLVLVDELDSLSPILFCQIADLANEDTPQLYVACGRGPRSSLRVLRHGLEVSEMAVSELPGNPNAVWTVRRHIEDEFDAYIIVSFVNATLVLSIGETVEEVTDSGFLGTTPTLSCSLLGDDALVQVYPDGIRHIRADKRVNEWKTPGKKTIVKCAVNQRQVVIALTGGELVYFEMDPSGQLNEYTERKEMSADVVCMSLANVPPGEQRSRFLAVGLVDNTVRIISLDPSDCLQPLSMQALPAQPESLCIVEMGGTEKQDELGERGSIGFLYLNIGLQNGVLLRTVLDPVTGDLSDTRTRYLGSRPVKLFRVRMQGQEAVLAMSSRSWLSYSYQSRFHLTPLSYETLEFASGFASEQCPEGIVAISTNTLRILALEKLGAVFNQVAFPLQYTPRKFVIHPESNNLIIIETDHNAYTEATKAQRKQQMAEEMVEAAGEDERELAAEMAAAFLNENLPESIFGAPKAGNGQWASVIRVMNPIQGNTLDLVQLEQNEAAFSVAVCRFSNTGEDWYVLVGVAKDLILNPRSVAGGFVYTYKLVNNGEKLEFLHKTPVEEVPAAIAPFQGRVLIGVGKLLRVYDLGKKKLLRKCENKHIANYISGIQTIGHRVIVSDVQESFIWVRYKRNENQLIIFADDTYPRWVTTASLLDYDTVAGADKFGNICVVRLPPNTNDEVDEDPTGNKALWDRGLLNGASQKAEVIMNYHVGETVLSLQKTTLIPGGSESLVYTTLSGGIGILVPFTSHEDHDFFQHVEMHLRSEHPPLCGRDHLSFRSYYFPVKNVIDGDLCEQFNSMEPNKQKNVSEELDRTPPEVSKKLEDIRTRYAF
T1 sequence (Q9BWJ5 whole entry, chain 3 of 4, the tested form may be a part): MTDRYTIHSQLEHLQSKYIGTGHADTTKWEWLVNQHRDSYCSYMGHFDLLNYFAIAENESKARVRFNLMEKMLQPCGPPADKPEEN
T1 sequence (Q7RTV0 1-98, chain 4 of 4): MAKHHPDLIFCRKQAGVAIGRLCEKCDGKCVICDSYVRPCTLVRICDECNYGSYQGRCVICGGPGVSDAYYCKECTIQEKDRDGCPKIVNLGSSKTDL

B1: DHX15 (113–795)–SUGP1 (433–645) heterodimer (complex, human)
chain 1: QCINPFTNLPHTPRYYDILKKRLQLPVWEYKDRFTDILVRHQSFVLVGETGSGKTTQIPQWCVEYMRSLPGPKRGVACTQPRRVAAMSVAQRVADEMDVMLGQEVGYSIRFEDCSSAKTILKYMTDGMLLREAMNDPLLERYGVIILDEAHERTLATDILMGVLKEVVRQRSDLKVIVMSATLDAGKFQIYFDNCPLLTIPGRTHPVEIFYTPEPERDYLEAAIRTVIQIHMCEEEEGDLLLFLTGQEEIDEACKRIKREVDDLGPEVGDIKIIPLYSTLPPQQQQRIFEPPPPKKQNGAIGRKVVVSTNIAETSLTIDGVVFVIDPGFAKQKVYNPRIRVESLLVTAISKASAQQRAGRAGRTRPGKCFRLYTEKAYKTEMQDNTYPEILRSNLGSVVLQLKKLGIDDLVHFDFMDPPAPETLMRALELLNYLAALNDDGDLTELGSMMAEFPLDPQLAKMVIASCDYNCSNEVLSITAMLSVPQCFVRPTEAKKAADEAKMRFAHIDGDHLTLLNVYHAFKQNHESVQWCYDNFINYRSLMSADNVRQQLSRIMDRFNLPRRSTDFTSRDYYINIRKALVTGYFMQVAHLERTGHYLTVKDNQVVQLHPSTVLDHKPEWVLYNEFVLTTKNYIRTCTDIKPEWLVKIAPQYYDMSNFPQCEAKRQLDRIIAKLQSKEYSQY
chain 2: GVTELSDAQKKQLKEQQEMQQMYDMIMQHKRAMQDMQLLWEKAVQQHQHGYDSDEEVDSELGTWEHQLRRMEMDKTREWAEQLTKMGRGKHFIGDFLPPDELEKFMETFKALKEGREPDYSEYKEFKLTVENIGYQMLMKMGWKEGEGLGSEGQGIKNPVNKGTTTVDGAGFGIDRPAELSKEDDEYEAFRKRMMLAYRFRPNPLNNPRRPYY
notes: DHX15 (DEAH-box helicase 15), residues 113-795, lacks the N-terminal unstructured region; DHX15 was fused with N-terminal His6, MBP and a TEV protease cleavage site; also called DHX15–SUGP1; DHX15–SUGP1 heterodimer; source: Tni insect cells (baculovirus), coexpressed, purified as in Zhang et al. 2022a
B1: binds.
